Usually Kd stands for the free concentration of one partner at which half of the binding sites on the other are occupied at equilibrium, for simple one-to-one binding.

What all share (settings): both partners purified
The target in assay [1] is T1, cpSRP43 CD2CD3 (UniProt O22265 264-373, 15N,13C labelled where it is the observed partner in NMR).
T1 construct: cpSRP43 chromodomains 2 and 3, residues 264-373; His6-Trx is joined through a cleavable TEV site; In the crystal structure the same range stands inside the fusion m15; also called cpSRP43 CD2CD3 deletion construct; source: E. coli Rosetta2 pLysS, purified (as His6-Trx fusion with a cleavable TEV site; Superdex75)
T1 sequence (looked up): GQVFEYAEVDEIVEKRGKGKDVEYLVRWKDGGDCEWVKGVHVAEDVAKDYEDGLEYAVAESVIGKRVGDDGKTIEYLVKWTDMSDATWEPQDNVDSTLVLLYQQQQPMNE
As to the kind of experiment: SAXS; CD2CD3 alone and with 7 × molar excess of A3CT IV, 298 K.

Assay [2] has as its target T1, cpSRP43 CD2CD3. Kind of assay: crystal structure; His6–Trx–CD2CD3–(GS)3–A3CT IV on one chain, 2.8 Å, two molecules in the asymmetric unit; 20% PEG 3350, 0.2 M Ca(OAc)2, 18 °C.
The target in assay [3] is T2, A3CT (Alb3 C-terminal tail) produced as His6-Trx fusion for NMR (UniProt Q8LBP4 363-462, 15N,13C labelled where it is the observed partner in NMR).
T2 construct: Alb3 insertase C-terminal tail; the A3CT constructs encode residues 363-462; this one is used for all NMR rows; also called Trx–A3CT
T2 sequence (looked up): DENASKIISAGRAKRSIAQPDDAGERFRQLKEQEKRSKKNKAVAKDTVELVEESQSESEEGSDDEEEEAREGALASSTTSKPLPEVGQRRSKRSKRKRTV
Kind of assay: NMR titration; 1H,15N HSQC chemical shift perturbations of the labelled partner on stepwise addition of the unlabelled ligand, 298 K, 20 mM Na-phosphate (pH 6.5), 150 mM NaCl.

A further assay has as its target T3, full-length cpSRP43 (UniProt O22265 57-373).
T3 construct: cpSRP43, the 43-kDa subunit of the chloroplast signal recognition particle (CD1, Ank1-4, CD2, CD3); called full-length in the results; the chloroplast transit peptide may be absent from the recombinant protein (surmise); also called cpSRP43 wild-type; source: E. coli Rosetta (DE3) pLysS, purified (HisTrap, size-exclusion chromatography)
Kind of assay: ITC; VP-ITC, 20 °C, 20 mM Hepes (pH 7.5), 150 mM NaCl, 5 mM MgCl2, 0.25 mM TCEP; 0.01–0.1 mM in the cell, 0.1–1.0 mM in the syringe; duplicate or triplicate. A general note: ITC needs no label: the signal is the heat of the interaction.

Where no end group is shown, it is not given here.

B1: A3CT IV peptide (peptide, UniProt Q8LBP4 434-461, looked up)
peptide: GALASSTTSKPLPEVGQRRSKRSKRKRT
modifications: also: 15N,13C labelled where it is the observed NMR partner
notes: Alb3 C-terminal 28 residues including motif IV, residues 434-461 (holds 454-KRSKRKR-460); The ITC methods also say that peptides were purchased from PSL; also called A3CT motif IV; motif IV; source: E. coli BL21, purified (His6-GST fusion, TEV cleavage, HisTrap, Superdex75); not shown: His6, N-terminal, cleaved; GST, N-terminal, cleaved
In the case of B1, the binding result in the assay with cpSRP43 CD2CD3 [1] is listed as “binds”.

B2: A3CT IV (residues 440–461) as joined to CD2CD3 in the fusion construct (peptide, UniProt Q8LBP4 440-461, looked up)
peptide: TTSKPLPEVGQRRSKRSKRKRT
notes: Alb3 C-terminal tail motif IV, residues 440-461; residues 453-461 are ordered in the structure, 454-KRSKRKR-460 is threaded into CD3; Stood on one chain with CD2CD3 through a (GS)3 linker; also called A3CT motif IV; motif IV; source: E. coli Rosetta2 (DE3) pLysS, purified as part of His6–Trx–CD2CD3–IV
Regarding B2, the binding result in the assay with cpSRP43 CD2CD3 [2] is on record as “binds”.

B3: cpSRP43 CD3 (domain or fragment, UniProt O22265 316-373, looked up)
chain: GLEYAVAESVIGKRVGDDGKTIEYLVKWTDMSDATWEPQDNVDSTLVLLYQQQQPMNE
notes: Gly316 is the N-terminal residue in the CD3 constructs; also called CD3 only; cpSRP43 CD3 deletion construct; source: E. coli Rosetta2 pLysS, purified (as His6-Trx fusion with a cleavable TEV site; Superdex75); not shown: His6, N-terminal, cleaved; thioredoxin (Trx), N-terminal, cleaved
With B3, in assay [3], the binding result is on record as “binds”.

B4: A3CT motif II peptide (peptide)
chain: IISAGRAKRSI
modifications: The exact ends of the peptide are not printed. 369-379 is the region the text gives as including motif II, so the assayed peptide may be longer. Terminal chemistry is not stated.
Take B4: in the assay with full-length cpSRP43, binding was characterised by a dissociation constant (Kd) of 150 µM.

The values above are taken from publication PMC4660199 (Nature Communications, 2015).
